In assay [1] the target is T1, Human GUCY2C full length (SEQ ID NO: 224), recombinant protein (human, UniProt P25092 24-430, limits assumed).
T1 construct: also called huGUCY2C; biotinylated human GUCY2c
As to the kind of experiment: SPR, IgG captured by anti-human Fc.

Assay [2] addresses T2, Purified human GUCY2c ECD (recombinant, construct not stated) (human, UniProt P25092 24-430).
T2 construct: also called recombinant human GUCY2c; recombinant GUCY2c protein
The experiment in a line: ELISA; column 'Direct huGUCY2C binding (nM)'.

Assay [3] deals with T3, Human CD3 epsilon-delta (human).
T3 construct: Single-chain epsilon-linker-delta with His6; also called huCD3
T3 chain: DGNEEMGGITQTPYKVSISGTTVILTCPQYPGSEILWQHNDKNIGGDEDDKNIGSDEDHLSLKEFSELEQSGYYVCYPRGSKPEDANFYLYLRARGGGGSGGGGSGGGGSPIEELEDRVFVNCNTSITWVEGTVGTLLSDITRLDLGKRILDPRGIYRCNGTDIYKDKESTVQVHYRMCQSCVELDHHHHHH
As to the kind of experiment: SPR, anti-human IgG capture, 25 C.

Assay [4] has as its target T4, Cynomolgus GUCY2C-ECD Cleaved (cynomolgus, UniProt P25092 24-430 (human entry)).
T4 construct: also called CyGUCY2C
T4 chain: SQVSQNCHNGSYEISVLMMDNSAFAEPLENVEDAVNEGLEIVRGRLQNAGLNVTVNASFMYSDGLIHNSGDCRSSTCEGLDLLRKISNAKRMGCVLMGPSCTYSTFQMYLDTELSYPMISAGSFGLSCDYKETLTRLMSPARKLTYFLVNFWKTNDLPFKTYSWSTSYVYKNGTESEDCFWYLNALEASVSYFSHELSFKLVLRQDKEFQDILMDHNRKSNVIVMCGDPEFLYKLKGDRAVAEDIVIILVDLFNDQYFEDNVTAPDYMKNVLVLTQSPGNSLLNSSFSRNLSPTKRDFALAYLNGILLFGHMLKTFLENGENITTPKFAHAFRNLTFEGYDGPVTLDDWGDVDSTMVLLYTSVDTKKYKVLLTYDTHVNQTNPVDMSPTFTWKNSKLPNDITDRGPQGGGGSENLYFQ
As to the kind of experiment: SPR, GUCY2c directly immobilized, 37 C.

The target of assay [5] is T5, Murine GUCY2C-ECD cleaved (mouse, UniProt Q3UWA6 20-433).
T5 sequence: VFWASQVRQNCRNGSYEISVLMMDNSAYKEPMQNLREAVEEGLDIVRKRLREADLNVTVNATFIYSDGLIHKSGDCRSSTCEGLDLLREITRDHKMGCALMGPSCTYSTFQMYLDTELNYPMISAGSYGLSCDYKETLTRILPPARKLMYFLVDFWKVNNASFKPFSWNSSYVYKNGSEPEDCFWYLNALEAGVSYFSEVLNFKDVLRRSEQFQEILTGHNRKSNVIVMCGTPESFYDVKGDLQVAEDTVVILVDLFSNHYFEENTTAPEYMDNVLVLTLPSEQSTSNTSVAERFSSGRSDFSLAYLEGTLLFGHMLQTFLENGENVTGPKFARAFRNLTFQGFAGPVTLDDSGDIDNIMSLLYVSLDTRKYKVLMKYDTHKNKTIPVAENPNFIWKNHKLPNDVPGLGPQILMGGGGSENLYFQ
As to the kind of experiment: SPR, anti-human IgG capture, 25 C.

The target of assay [6] is T5, Murine GUCY2C-ECD cleaved. The experiment in a line: SPR, GUCY2c directly immobilized, 25 C.
Assay [7] addresses T1, Human GUCY2C full length (SEQ ID NO: …). As to the kind of experiment: SPR, GUCY2c directly immobilized, 37 C.
Assay [8] addresses T2, Purified human GUCY2c ECD (recombinant, …). As to the kind of experiment: direct ELISA, coated GUCY2c ECD.
For assay [9], the target named is T6, Cynomolgus CD3 epsilon-delta (cynomolgus).
T6 chain: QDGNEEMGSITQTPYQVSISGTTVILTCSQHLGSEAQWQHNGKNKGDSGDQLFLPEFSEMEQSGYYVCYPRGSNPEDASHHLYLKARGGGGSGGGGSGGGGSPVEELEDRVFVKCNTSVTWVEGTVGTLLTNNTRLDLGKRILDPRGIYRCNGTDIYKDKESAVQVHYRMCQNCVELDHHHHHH
As to the kind of experiment: SPR, CD3 captured by anti-His, printed 25 C (Table 33F).

Assay [10] deals with T5, Murine GUCY2C-ECD cleaved. As to the kind of experiment: SPR, GUCY2c directly immobilized, 37 C.
In assay [11] the target is T3, Human CD3 epsilon-delta. The experiment in a line: SPR, CD3 captured by anti-His, printed 25 C (Table 33C).
In assay [12] the target is T6, Cynomolgus CD3 epsilon-delta. As to the kind of experiment: SPR, printed anti-His capture, 25 C (Table 33D).
Assay [13] shares this target. The experiment in a line: SPR, CD3 captured by anti-His, 25 C.
The target in assay [14] is T3, Human CD3 epsilon-delta. As to the kind of experiment: direct ELISA, coated CD3 epsilon-delta.
Assay [15] concerns the target T4, Cynomolgus GUCY2C-ECD Cleaved. The experiment in a line: SPR, GUCY2c directly immobilized, 25 C.
The target of assay [16] is T3, Human CD3 epsilon-delta. As to the kind of experiment: SPR, CD3 captured by anti-His, 25 C.
A further assay has as its target T7, Human GUCY2C ECD-muIgG2a (human).
T7 construct: also called human GUCY2c ECD-mouse IgG2a Fc fusion protein; huGUCY2c-mIgG2a
As to the kind of experiment: sandwich ELISA: CD3 epsilon-delta coated, GUCY2c ECD-mIgG2a Fc in solution.

For assay [17], the target named is T1, Human GUCY2C full length (SEQ ID NO: …). As to the kind of experiment: SPR, GUCY2c directly immobilized, 25 C.
The target is the same in assay [18]. As to the kind of experiment: SPR, anti-human IgG capture, 25 C.
For assay [19], the target named is T4, Cynomolgus GUCY2C-ECD Cleaved. The experiment in a line: SPR, anti-human IgG capture, 25 C.
In assay [20] the target is Human GUCY2c on tumor cells (T84, HT55) (human, UniProt P25092 24-1073). As to the kind of experiment: cell-based or functional assay.
Sequence of Human GUCY2c on tumor cells (T84, HT55) (P25092 24-1073 limits assumed): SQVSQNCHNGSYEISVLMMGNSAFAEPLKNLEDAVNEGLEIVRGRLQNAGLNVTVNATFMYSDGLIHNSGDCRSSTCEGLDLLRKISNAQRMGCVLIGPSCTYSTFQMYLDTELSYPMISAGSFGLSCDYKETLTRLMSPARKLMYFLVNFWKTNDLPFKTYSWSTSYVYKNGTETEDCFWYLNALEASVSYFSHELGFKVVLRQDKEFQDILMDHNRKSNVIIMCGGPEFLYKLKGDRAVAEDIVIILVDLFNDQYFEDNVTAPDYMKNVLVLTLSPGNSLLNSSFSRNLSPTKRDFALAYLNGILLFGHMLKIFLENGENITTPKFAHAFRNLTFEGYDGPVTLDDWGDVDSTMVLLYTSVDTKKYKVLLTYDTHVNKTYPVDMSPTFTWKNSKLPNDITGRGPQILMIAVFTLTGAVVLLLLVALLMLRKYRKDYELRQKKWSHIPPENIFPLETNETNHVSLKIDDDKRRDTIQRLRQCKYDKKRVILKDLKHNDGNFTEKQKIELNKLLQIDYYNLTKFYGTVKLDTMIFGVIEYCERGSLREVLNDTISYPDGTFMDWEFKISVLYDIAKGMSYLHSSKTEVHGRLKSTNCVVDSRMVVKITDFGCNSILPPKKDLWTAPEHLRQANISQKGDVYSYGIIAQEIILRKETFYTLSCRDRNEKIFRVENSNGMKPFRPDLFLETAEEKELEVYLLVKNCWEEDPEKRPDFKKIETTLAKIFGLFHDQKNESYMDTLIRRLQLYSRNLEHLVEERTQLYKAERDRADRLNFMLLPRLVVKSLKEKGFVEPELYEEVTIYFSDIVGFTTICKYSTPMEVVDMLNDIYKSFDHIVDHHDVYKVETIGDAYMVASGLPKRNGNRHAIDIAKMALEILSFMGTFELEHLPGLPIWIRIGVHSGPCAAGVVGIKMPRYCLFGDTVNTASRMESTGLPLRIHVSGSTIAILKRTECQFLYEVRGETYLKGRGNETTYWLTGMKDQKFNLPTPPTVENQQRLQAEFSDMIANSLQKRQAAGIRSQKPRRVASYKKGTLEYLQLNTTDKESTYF

T1 sequence (P25092 24-430 F281L limits assumed): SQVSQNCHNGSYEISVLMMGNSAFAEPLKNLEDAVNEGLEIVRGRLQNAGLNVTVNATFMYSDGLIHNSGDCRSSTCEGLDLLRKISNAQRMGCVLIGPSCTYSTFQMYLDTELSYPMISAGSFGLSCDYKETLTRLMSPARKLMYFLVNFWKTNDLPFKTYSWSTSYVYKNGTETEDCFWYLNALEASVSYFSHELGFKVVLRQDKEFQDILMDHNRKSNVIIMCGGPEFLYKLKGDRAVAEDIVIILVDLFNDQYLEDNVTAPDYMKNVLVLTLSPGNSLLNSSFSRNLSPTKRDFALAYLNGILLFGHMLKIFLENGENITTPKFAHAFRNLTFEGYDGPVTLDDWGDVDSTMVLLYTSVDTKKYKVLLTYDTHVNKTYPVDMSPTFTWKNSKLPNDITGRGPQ
T2 sequence (P25092 24-430 limits assumed): as the sequence (P25092 24-430 F281L limits assumed) above, with L258F counted along it
T7 sequence (chain, as listed by the source limits assumed): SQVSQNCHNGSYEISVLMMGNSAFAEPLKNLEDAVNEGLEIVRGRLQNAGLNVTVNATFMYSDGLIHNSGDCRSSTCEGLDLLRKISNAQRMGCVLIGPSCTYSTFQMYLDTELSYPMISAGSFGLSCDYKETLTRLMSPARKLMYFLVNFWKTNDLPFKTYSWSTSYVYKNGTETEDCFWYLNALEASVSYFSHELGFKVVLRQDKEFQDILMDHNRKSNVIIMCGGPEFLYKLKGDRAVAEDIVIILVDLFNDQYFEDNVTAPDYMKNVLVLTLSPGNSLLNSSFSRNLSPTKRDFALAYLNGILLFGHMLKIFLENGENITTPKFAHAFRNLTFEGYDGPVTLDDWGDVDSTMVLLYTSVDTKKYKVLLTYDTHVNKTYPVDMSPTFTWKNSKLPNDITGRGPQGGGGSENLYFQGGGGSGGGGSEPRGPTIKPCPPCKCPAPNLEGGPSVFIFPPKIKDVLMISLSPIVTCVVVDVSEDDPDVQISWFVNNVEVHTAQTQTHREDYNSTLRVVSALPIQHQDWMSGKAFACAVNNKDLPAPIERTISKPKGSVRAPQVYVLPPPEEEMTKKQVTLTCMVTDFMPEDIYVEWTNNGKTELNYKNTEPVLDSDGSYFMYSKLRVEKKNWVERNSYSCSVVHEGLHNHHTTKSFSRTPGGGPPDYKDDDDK

B1: GUCY2C-0212 (antibody, human IgG1, V domains shown)
VH: EVQLVESGGGLVQPGGSLRLSCAASGYTFTSYWMHWVRQAPGKGLEWIGEIKPSNGLTNYIEKFKNRFTISRDNAKNSLYLQMNSLRAEDTAVYYCARTITTTEGYWFFDVWGQGTLVTVSS
VL: DIQLTQSPSSLSASVGDRVTITCRASESVDYYGTSLMQWYQQKPGKAPKLLIYAASNVESGVPSRFSGSGSGTDFTLTISSLQPEDFATYYCQQTRKVYTFGQGTKLEIK
As for B1, the Kd in assay [1] stood at 26 nM. Also, the EC50 in assay [2] came to 0.769 nM.

B2: GUCY2C-0486 (antibody, human IgG1, kappa, V domains shown)
VH: EVQLVESGGGLVQPGGSLRLSCAASGYTFTSYWMHWVRQAPGKGLEWIGEIKPSNGLTNVHEKFKNRFTISVDKAKNSAYLQMNSLRAEDTAVYYCTRTITTTEGYWFFDVWGQGTLVTVSS
VL: DIQLTQSPSSLSASVGDRVTITCRASESVDYYGSSLLQWYQQKPGKAPKLLIYAASKLASGVPSRFSGSGSGTDFTLTISSLQPEDFATYYCQQTRKAYTFGQGTKLEIKR
For B2, in assay [1], the Kd was 5.47 nM.

B3: GUCY2C-0210 (antibody, human IgG1, V domains shown)
VH: EVQLVESGGGLVQPGGSLRLSCAASGYTFTSYWMHWVRQAPGKGLEWIAEIKPSNGLTNYIEKFKNRFTISRDNAKNSLYLQMNSLRAEDTAVYYCARTITTTEGYWFFDVWGQGTLVTVSS
VL: DIQLTQSPSSLSASVGDRVTITCRASESVDYYGTSLMQWYQQKPGKAPKLLIYAASNVESGVPSRFSGSGSGTDFTLTISSLQPEDFATYYCQQTRKVYTFGQGTKLEIK
As for B3, the dissociation constant Kd in assay [1] turned out to be 85.7 nM. Moreover, the EC50 in [2] was 8.96 nM.

B4: GUCY2C-0241 (antibody, human IgG1, kappa, V domains shown)
VH: EVQLVESGGGLVQPGGSLRLSCAASGYTFTSYWMHWVRQAPGKGLEWIGEIKPSNGLTNYIEKFKNRFTISVDKAKNSAYLQMNSLRAEDTAVYYCTRTITTTEGYWFFDVWGQGTLVTVSS
VL: DIQLTQSPSSLSASVGDRVTITCRASESVDYYGTSLMQWYQQKPGKAPKLLIYAASNVESGVPSRFSGSGSGTDFTLTISSLQPEDFATYYCQQTRKVYTFGQGTKLEIKR
notes: humanized IgG1; used as scFv on phage in the binary substitution library
For B4, the dissociation constant (Kd) in assay [1] is 9.81 nM. In assay [2], the EC50 amounted to 0.161 nM.

B5: GUCY2C-0098 (bispecific antibody)
chain 1: DIVLTQSPASLAVSLGQRATISCRASESVDYYGTSLMQWYQQKPGQPPKLLIYAASNVESGVPARFSGSGSGTDFSLNIHPVEEDDIAMYFCQQTRKVYTFGGGTKLEIKGGGSGGGGEVQLVESGGGLVQPGGSLRLSCAASGFTFSDYYMTWVRQAPGKGLEWVAFIRNRARGYTSDHNPSVKGRFTISRDNAKNSLYLQMNSLRAEDTAVYYCARDRPSYYVLDYWGQGTTVTVSSGCPPCPAPEAAGAPSVFLFPPKPKDTLMISRTPEVTCVVVDVSHEDPEVKFNWYVDGVEVHNAKTKPREEQYNSTYRVVSVLTVLHQDWLNGKEYKCKVSNKALPAPIEKTISKAKGQPREPQVCTLPPSREEMTKNQVSLWCLVKGFYPSDIAVEWESNGQPENNYKTTPPVLDSDGSFFLYSKLTVDKSRWQQGNVFSCSVMHEALHNHYTQKSLSLSPG
chain 2: DIVMTQSPDSLAVSLGERATINCKSSQSLFNVRSRKNYLAWYQQKPGQPPKLLISWASTRESGVPDRFSGSGSGTDFTLTISSLQAEDVAVYYCKQSYDLFTFGSGTKLEIKGGGSGGGGQVQLQQPGAELVKPGASVKLSCKASGYTFTSYWMHWVKQRPGQGLEWIGEIKPSNGLTNYIEKFKNKATLTVDKSATTAYMQLSSLTAEDSAVYYCTRTITTTEGYWFFDVWGAGTTVTVSSGCPPCPAPEAAGAPSVFLFPPKPKDTLMISRTPEVTCVVVDVSHEDPEVKFNWYVDGVEVHNAKTKPREEQYNSTYRVVSVLTVLHQDWLNGKEYKCKVSNKALPAPIEKTISKAKGQPREPQVYTLPPCREEMTKNQVSLSCAVKGFYPSDIAVEWESNGQPENNYKTTPPVLDSDGSFFLVSKLTVDKSRWQQGNVFSCSVMHEALHNHYTQKSLSLSPG
notes: chimeric CD3-GUCY2c diabody-Fc, CD3-0004
As for B5, the Kd with Human CD3 epsilon-delta [3] was 3.26 nM; in assay [4], 8.52 nM; in [5], 107 nM; in assay [6], 20 nM; in [7], 15 nM; in [9], 19.3 nM. The Kd was found to be 103 nM in assay [10]; 19.9 nM with Human CD3 epsilon-delta [11]; 3.56 nM in assay [12]; 4.94 nM in [13]; 2.8 nM in assay [15]; 4.75 nM with Human CD3 epsilon-delta [16]. Besides, the Kd is 7.19 nM in assay [17], 4.96 nM in assay [18] and 3.93 nM in assay [19]. Further, the koff came out at 0.000967 s⁻¹ with Human CD3 epsilon-delta [3]; 0.00264 s⁻¹ in [4]; 0.00402 s⁻¹ in assay [5]; 0.00268 s⁻¹ in [6]; 0.00377 s⁻¹ in assay [7]; 0.0442 s⁻¹ in assay [9]. The koff is 0.0201 s⁻¹ in assay [10]; 0.0505 s⁻¹ with Human CD3 epsilon-delta [11]; 0.00101 s⁻¹ in assay [12]; 0.00478 s⁻¹ in assay [13]; 0.000577 s⁻¹ in [15]; 0.00524 s⁻¹ with Human CD3 epsilon-delta [16]. The off-rate constant (koff) was 0.00104 s⁻¹ in [17], 0.000675 s⁻¹ in assay [18] and 0.000524 s⁻¹ in assay [19]. Moreover, the kon with Human CD3 epsilon-delta [3] is 297000 M⁻¹ s⁻¹; in assay [4], 310000 M⁻¹ s⁻¹; in assay [5], 37500 M⁻¹ s⁻¹; in assay [6], 134000 M⁻¹ s⁻¹; in assay [7] it was 251000 M⁻¹ s⁻¹; in assay [9], 2.28e+06 M⁻¹ s⁻¹. The kon in [10] worked out at 196000 M⁻¹ s⁻¹; with Human CD3 epsilon-delta [11], 2.51e+06 M⁻¹ s⁻¹; in assay [12] it was 284000 M⁻¹ s⁻¹; in [13], 969000 M⁻¹ s⁻¹; in [15] it was 206000 M⁻¹ s⁻¹; with Human CD3 epsilon-delta [16] it was 1.1e+06 M⁻¹ s⁻¹. Further, the kon in assay [17] is 145000 M⁻¹ s⁻¹; in assay [18], 136000 M⁻¹ s⁻¹; in assay [19] it was 134000 M⁻¹ s⁻¹. The EC50 in [8] is 60.2 nM; with Human CD3 epsilon-delta [14], 7.24 nM; with Human GUCY2C ECD-muIgG2a it was 186 nM. The “T84 tumor cell EC50 (T cell cytotoxicity, E:T 10:1)” value in assay [20] worked out at 0.41 nM.

For the origin of these results see US20230340151A1 (Pfizer, published 2023).
